± gives the uncertainty stated by the source.

The chains are these.
B1: Apoptosis-associated speck-like protein containing a CARD, residues 114 to 194; numbered along this chain, Q9ULZ3 (parent)
chain: FIDQHRAALIARVTNVEWLLDALYGKVLTDEQYQAVRAEPTNPSKMRKLFSFTPAWNWTCKDLLLQALRESQSYLVEDLER

In this series the parent is B1. Description: abundance fitness (aPCA) (normalised: wild type 0, dead -1); higher = more abundant; growth selection in yeast, the domain comes from the species named. Particulars: Homo sapiens.
In the case of FIWQHRAALIARVTNVEWLLDALYGKVLTDEQYQAVRAEPTNPSKMRKLFSFTPAWNWTCKDLLLQALRESQSYLVEDLER [D3W], the abundance fitness was -0.582 ± 0.13.

Regarding FIDQHRAALIARVTNVEWLLDALYGHVLTDEQYQAVRAEPTNPSKMRKLFSFTPAWNWTCKDLLLQALRESQSYLVEDLER [K26H], the abundance fitness was -0.422 ± 0.13.

With FIDQHRAALIARVTNVEWLLDALYGKVLTDEQYQAHRAEPTNPSKMRKLFSFTPAWNWTCKDLLLQALRESQSYLVEDLER [V36H], the abundance fitness was -0.819 ± 0.28.

Take FIDQHRAALIARVTNVEWLLDALYGKVLTDEQYQAIRAEPTNPSKMRKLFSFTPAWNWTCKDLLLQALRESQSYLVEDLER [V36I]: the abundance fitness is -0.143 ± 0.13.

As for FIDQHRAALIARVTNVEWLLDALYGKVLTDEQYQAGRAEPTNPSKMRKLFSFTPAWNWTCKDLLLQALRESQSYLVEDLER [V36G], the abundance fitness was -0.691 ± 0.08.

Take FIDQHRAALIARVTNVEWLLDALYGKVLTDFQYQAVRAEPTNPSKMRKLFSFTPAWNWTCKDLLLQALRESQSYLVEDLER [E31F]: the abundance fitness is -0.82 ± 0.19.

Consider FIDQHRAALIARVTNVEWLLDALYGKVLTDEQYQAVRAEPTNPSKMRKLFSFTPAWNWTCKDLLLQALRESQPYLVEDLER [S73P], for which the abundance fitness came to 0.32 ± 0.12.

FIDQHRAALIARVTNVEWLLDALYGKVLTDEQYQAVRAEPTNPSKMRKLFSFTPAWNWTCKDLLLQALRESQSYLVYDLER [E77Y]: the abundance fitness was -0.491 ± 0.14.

In the case of FIDQHRAALIARVTNVEWLLDALYGKVLTDEQYQAVRAEPTNPSKMRKLFSFTPAWNWTCKDLLLLALRESQSYLVEDLER [Q66L], the abundance fitness is -0.6 ± 0.078.

In the case of FIDQHRAALIARVTNVEWLLDALYGKVLTDEQYQAVRAEPMNPSKMRKLFSFTPAWNWTCKDLLLQALRESQSYLVEDLER [T41M], the abundance fitness is -0.701 ± 0.13.

As for FIDQHRAALIARVTNVEWLLDALYGKVLTDEQYQAVRAEPTNPFKMRKLFSFTPAWNWTCKDLLLQALRESQSYLVEDLER [S44F], the abundance fitness is -0.842 ± 0.2.

Consider FIDQHRAALIARVTNVEWLLPALYGKVLTDEQYQAVRAEPTNPSKMRKLFSFTPAWNWTCKDLLLQALRESQSYLVEDLER [D21P], for which the abundance fitness was -0.987 ± 0.19.

For the variant FIDQHRAALIARVTNVEWLLGALYGKVLTDEQYQAVRAEPTNPSKMRKLFSFTPAWNWTCKDLLLQALRESQSYLVEDLER [D21G], the abundance fitness is -0.331 ± 0.047.

FIDQHRAALIARVTNVEWLLNALYGKVLTDEQYQAVRAEPTNPSKMRKLFSFTPAWNWTCKDLLLQALRESQSYLVEDLER [D21N]: the abundance fitness was -0.264 ± 0.086.

As to FIDQHRAALIARVTNVEWLLDALYGKVLTDEQYQAVRAEPTNPSKMRKLFSFTPAWNWTCKDLLLQALYESQSYLVEDLER [R69Y], the abundance fitness is -0.62 ± 0.09.

Regarding FIDQHRAALIARVTNVEWLLDALYGKVLTDEQYQAVRAEPTNPSKMRKLFSFTPAWNWTCKDLLLQALRESVSYLVEDLER [Q72V], the abundance fitness is -0.574 ± 0.071.

Consider FIDQHRAALIARVTNVEWLLDALYGKVLTDEQYQAVRAEPTNPSKMRKLFSFTPAWNWTCKWLLLQALRESQSYLVEDLER [D62W], for which the abundance fitness was -0.609 ± 0.13.

Take FIDQHRAALIARVTNVEWLLDALYGKVLTDEQYQAVRAEPTNPSKMRKLFSFTPAWNWTCRDLLLQALRESQSYLVEDLER [K61R]: the abundance fitness was -0.437 ± 0.058.

For the variant FWDQHRAALIARVTNVEWLLDALYGKVLTDEQYQAVRAEPTNPSKMRKLFSFTPAWNWTCKDLLLQALRESQSYLVEDLER [I2W], the abundance fitness is -0.619 ± 0.43.

For the variant FIDQHRAALIARVTNVEWLLDALYGKVLTDEQYQAVRAEPTNPSKMRKLFSFTPAWNWTCKDLLLQALRESQSYLVEDLRR [E80R], the abundance fitness is -0.461 ± 0.054.

Regarding FIDQHRAASIARVTNVEWLLDALYGKVLTDEQYQAVRAEPTNPSKMRKLFSFTPAWNWTCKDLLLQALRESQSYLVEDLER [L9S], the abundance fitness is -0.938 ± 0.15.

For the variant FIDQHRAALIARVTNVEWLLDALYGKVLTDEQYQAVRAEPTNPSKMRKLFSFTPAWNWTSKDLLLQALRESQSYLVEDLER [C60S], the abundance fitness was found to be 0.167 ± 0.045.

With FIDQHRAALIARVTNVEWLLDALYGKVLTDEQYQAVRAEPTNPSKMRKLFSFTPATNWTCKDLLLQALRESQSYLVEDLER [W56T], the abundance fitness was -0.74 ± 0.088.

Turning to FIDQHRAALIARVTNVEWLLDALYGKVLTDEQYQAVRAIPTNPSKMRKLFSFTPAWNWTCKDLLLQALRESQSYLVEDLER [E39I], the abundance fitness was -0.909 ± 0.25.

As for FIDQHRAALIARVTNVEWLLDALYGKVLTDEQYQAVRAEPTNPSKCRKLFSFTPAWNWTCKDLLLQALRESQSYLVEDLER [M46C], the abundance fitness is -1.02 ± 0.27.

For the variant FIDQHRAALIARVTNVQWLLDALYGKVLTDEQYQAVRAEPTNPSKMRKLFSFTPAWNWTCKDLLLQALRESQSYLVEDLER [E17Q], the abundance fitness is -0.083 ± 0.076.

Take FIDQHRAALIARVTNVEWLLDALYGKVLTDEQYQAVRAEPTNPSKMRKLFSFTPAWNWTCKDLLLQALRESQSYKVEDLER [L75K]: the abundance fitness was -0.944 ± 0.39.

Consider FIDQHRAALIARVTNVEWLLDALYGKVLTDEQYQAVRAEPTNPSKMRKLFSFTPAWNWTCKDHLLQALRESQSYLVEDLER [L63H], for which the abundance fitness is -0.425 ± 0.16.

As for FIDQHRAALIARVTNVEWLLDALYGKVLTDEQYQAVRAEPTNPSKMRKLFSFTPAWNWTCKDILLQALRESQSYLVEDLER [L63I], the abundance fitness is -0.359 ± 0.2.

FIDQHRAALIARVTNVEWLLDALYGKVLTDEQYQAVRAEPTNPSKMRKLFSFTPAWNWTCKDLDLQALRESQSYLVEDLER [L64D]: the abundance fitness was -0.519 ± 0.12.

Turning to FIDQHRAALIARVTNVEWLLDALYGKVLTDEQYQAVRAEPTNPSKMRKLFSFTPAWNWTCKDLGLQALRESQSYLVEDLER [L64G], the abundance fitness was -0.695 ± 0.076.

With FIDQHRAALIARVTNVEWLLDALRGKVLTDEQYQAVRAEPTNPSKMRKLFSFTPAWNWTCKDLLLQALRESQSYLVEDLER [Y24R], the abundance fitness was 0.109 ± 0.046.

As for FIDQHRAALIARVTNVEWLLDALYGKVLTDEQYQAVRAEPTNPSKMRKLFSFTPAWIWTCKDLLLQALRESQSYLVEDLER [N57I], the abundance fitness was -0.311 ± 0.12.

FIDAHRAALIARVTNVEWLLDALYGKVLTDEQYQAVRAEPTNPSKMRKLFSFTPAWNWTCKDLLLQALRESQSYLVEDLER [Q4A]: the abundance fitness is -0.358 ± 0.064.

Values taken from the Human Domainome abundance scans (Beltran et al. 2025).
